A short description of data set [1]: folding stability dG unfold from chymotrypsin proteolysis; higher = more stable. The procedure, abridged: (§1)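 Mini-proteins designed to be under 80 residues and free of cysteine were carried in a PA-tagged cDNA display construct and digested with trypsin and with chymotrypsin. Each protease was applied at 11 threefold-diluted concentrations, alongside a no-protease condition, before sequencing. K50 came from Bayesian fitting of the sequencing counts, and unfolding free energy was obtained by comparing it with a sequence-predicted unfolded-state K50 and a shared folded-state K50, for each protease separately or for both together. Designs were retained only if their AlphaFold2 dimer inter-PAE exceeded 15.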

Data set [2] can be described thus: folding stability dG unfold from trypsin proteolysis; higher = more stable. Put shortly:
as §1

Data set [3] is described as follows: folding stability dG unfold (combined trypsin and chymotrypsin); higher = more stable. The procedure, abridged: as §1

Experimental findings from the supplement of paper PMC12764529 are described below.

± gives the half width of the 95% confidence interval.

Take “SAGGSAGGSAGGMLTIVEVLSKDPEKPVYTVKVKFPDGSEKTLEVPPELLSNPEKEIVLESAGGSAGGSAGG [r7_117_JUSTAS]”: the “folding stability dG unfold” value was 1.44 ± 0.07 kcal/mol in data set [1], 1.23 ± 0.072 kcal/mol in data set [2] and 1.47 ± 0.12 kcal/mol in data set [3].
Regarding “SAGGSAGGSAGGMLVDPSTNTVTINLPPNTTLTFNYPDSTLTVTVPANETLTVTFPLTSSAGGSAGGSAGGS [r10_464_JUSTAS]”, the “folding stability dG unfold” value in data set [1] was determined as 0.947 ± 0.049 kcal/mol; in data set [2], 2.19 ± 0.075 kcal/mol; in data set [3] it was 1.67 ± 0.1 kcal/mol.
On the same counts, the results for “SAGGSAGGSAGGMNIKVLKEFEFETEDGVPVRYLLVDAGGEEGETVVIKETPTSIEIIPFSAGGSAGGSAGG [r7_960_TrMRF]” are 0.511 ± 0.17 kcal/mol, 0.856 ± 0.025 kcal/mol and 0.694 ± 0.11 kcal/mol.
On the same counts, the results for “SAGGSAGGSAGGMNPIVIKKTYPVKSGSFTVTLPEGVTPVSFEKDPNSDTITIEVLVEPSAGGSAGGSAGGS [r10_906_JUSTAS]” are -0.713 ± 0.37 kcal/mol, 0.63 ± 0.067 kcal/mol and 0.0999 ± 0.3 kcal/mol.
For “SAGGSAGGSAGGMPGVTTTSTTTTTLPNGTVVTTTTTTVLLPTGTTVTVTVTTTTSATTSSAGGSAGGSAGG [r11_274_JUSTAS]”, the figures for the “folding stability dG unfold” value in data set [1], in data set [2] and in data set [3] were 2.61 ± 0.088 kcal/mol, 2.77 ± 0.11 kcal/mol and 2.68 ± 0.12 kcal/mol, respectively.
Taken in the same sequence, the figures for “SAGGSAGGSAGGMPIPIIVIPTPPNGNFTPEQIKEVAEKLNDPVVLTEESDNSRVILVGSAGGSAGGSAGGS [r10_642_TrMRF]” were -0.135 ± 0.08 kcal/mol, 0.928 ± 0.029 kcal/mol and 0.519 ± 0.16 kcal/mol.
On to “SAGGSAGGSAGGMPVLVNIELPIPGTNETLTLEVEAEGPGGEEVEKEAQETAEKVLEESSAGGSAGGSAGGS [r10_863_JUSTAS]”, for which the “folding stability dG unfold” value in data set [1] was 1.79 ± 0.068 kcal/mol; in data set [2], 1.58 ± 0.1 kcal/mol; in data set [3], 1.72 ± 0.11 kcal/mol.
With “SAGGSAGGSAGGMREIAREIWEEYNNPVTIRIRNPNGKHEPFRFPDDPEDIPGWDIDDITSAGGSAGGSAGG [r7_998_TrROS]”, the entries for the “folding stability dG unfold” value in data set [1], in data set [2] and in data set [3] were 0.79 ± 0.098 kcal/mol, -0.831 ± 0.3 kcal/mol and 0.463 ± 0.082 kcal/mol, respectively.
Taken in the same sequence, the figures for “SAGGSAGGSAGGMREVIRRPEASGEVTVEPLPEDERRPVDFGSDGVVLWREGDEVVVEPSAGGSAGGSAGGS [r10_817_JUSTAS]” were 0.72 ± 0.043 kcal/mol, 0.00105 ± 0.087 kcal/mol and 0.562 ± 0.08 kcal/mol.
On to “SAGGSAGGSAGGMRKYLVTLKPPNGPVTRYILPSEEEIKEFVAPLNAEYEVTPLSEDVPPSAGGSAGGSAGG [r7_456_JUSTAS]”, for which the “folding stability dG unfold” value in data set [1] was determined as 0.72 ± 0.072 kcal/mol; in data set [2], 0.0557 ± 0.1 kcal/mol; in data set [3], 0.515 ± 0.088 kcal/mol.
For the sequence “SAGGSAGGSAGGMSFPVSSVEYRKDPNSDTPLVFITLPDGTVIIERLDTGTSSVVPVSQLSAGGSAGGSAGG [r11_922_JUSTAS]”, the entries for the “folding stability dG unfold” value in data set [1], in data set [2] and in data set [3] were 1.3 ± 0.15 kcal/mol, 1.12 ± 0.037 kcal/mol and 1.21 ± 0.067 kcal/mol, respectively.
Taken in the same sequence, the figures for “SAGGSAGGSAGGMSITFTAPDGSKITATIDPDGNVLVEVHLGDKPYYVKGPVETLLKNAPSAGGSAGGSAGG [r7_178_TrMRF]” were 0.904 ± 0.1 kcal/mol, 0.325 ± 0.027 kcal/mol and 0.719 ± 0.07 kcal/mol.
Take “SAGGSAGGSAGGMSITISVPEKTATIEIPGLGKTITIPPGETITVPIPNVPPFKITTEPPSAGGSAGGSAGG [r11_939_JUSTAS]”: the figures for the “folding stability dG unfold” value in data set [1], in data set [2] and in data set [3] were 0.854 ± 0.044 kcal/mol, 0.76 ± 0.059 kcal/mol and 0.732 ± 0.086 kcal/mol, respectively.
On the same counts, the results for “SAGGSAGGSAGGMTIVLNIPKEELTEEEIKKLKESLPSDNPVKIIVKPKPPRKFYPKSTISAGGSAGGSAGG [r7_979_JUSTAS]” are 1.12 ± 0.048 kcal/mol, 0.605 ± 0.024 kcal/mol and 0.925 ± 0.065 kcal/mol.
Consider “SAGGSAGGSAGGMTLEELKNLKPGEEVEIEIEVYDKNGKKVSKYRIRIYNDKIEIEKLPSAGGSAGGSAGGS [r10_394_TrROS_Hall]”, for which the entries for the “folding stability dG unfold” value in data set [1], in data set [2] and in data set [3] were 2.991 ± 0.026 kcal/mol, 2.4 ± 0.057 kcal/mol and 2.71 ± 0.092 kcal/mol, respectively.
On to “SAGGSAGGSAGGMTLEIEINGLKVRIEFDEETKELRIEVEPAPPPVVVYEKEKLEEEEESAGGSAGGSAGGS [r10_724_TrROS_Hall]”, for which the entries for the “folding stability dG unfold” value in data set [1], in data set [2] and in data set [3] were 1.52 ± 0.05 kcal/mol, 1.56 ± 0.078 kcal/mol and 1.46 ± 0.18 kcal/mol, respectively.
Taken in the same sequence, the figures for “SAGGSAGGSAGGMTPEEKIEALIKATPPLTVKTSGPGVSYEVEDLEKLKKLNVTISSVLGSAGGSAGGSAGG [r7_504_JUSTAS]” were -0.683 ± 0.24 kcal/mol, -1.3 ± 0.67 kcal/mol and -0.637 ± 0.22 kcal/mol.
Taken in the same sequence, the figures for “SAGGSAGGSAGGMTQEVTLEPLPDGTVKLLSVEAPESTVTVPVKLPGGGEEVRTLPPEALSAGGSAGGSAGG [r7_829_JUSTAS]” were -0.255 ± 0.15 kcal/mol, -0.0201 ± 0.045 kcal/mol and -0.131 ± 0.16 kcal/mol.
On the same counts, the results for “SAGGSAGGSAGGMTVERREVFPLGESLVITETREVLDPSSDVPVTVETRVEVLPPEVPPSAGGSAGGSAGGS [r10_599_JUSTAS]” are 0.25 ± 0.12 kcal/mol, -1.32 ± 0.74 kcal/mol and 0.033 ± 0.18 kcal/mol.
Take “SAGGSAGGSAGGMTVLETEVTTLPNGVVKTTTLYKDPSTGALHTVTEEVYVPLGETALLSAGGSAGGSAGGS [r10_72_JUSTAS]”: the “folding stability dG unfold” value worked out at 0.15 ± 0.15 kcal/mol in data set [1], 0.716 ± 0.022 kcal/mol in data set [2] and 0.523 ± 0.11 kcal/mol in data set [3].
Take “SAGGSAGGSAGGMTYVTVTLKEGDTEVTLTFPLEKLPEVVPEPGIEILEVETSPLDPELLSAGGSAGGSAGG [r17_204_JUSTAS]”: the “folding stability dG unfold” value in data set [1] turned out to be 0.737 ± 0.14 kcal/mol; in data set [2] it was 1.34 ± 0.081 kcal/mol; in data set [3] it was 1.05 ± 0.12 kcal/mol.
Taken in the same sequence, the figures for “SAGGSAGGSAGGMVETGTPSSGSSSPSYVLTTTTLTLLDGTFVPTTTTTTFSDPAEAAAASAGGSAGGSAGG [r7_896_JUSTAS]” were 0.411 ± 0.077 kcal/mol, 1.52 ± 0.082 kcal/mol and 1.14 ± 0.086 kcal/mol.
On the same counts, the results for “SAGGSAGGSAGGMVIERPLPNGEPLLVELGRPASAPARVTVPNPGRPLGTITSLEELEERSAGGSAGGSAGG [r7_72_TrMRF]” are 0.565 ± 0.03 kcal/mol, -0.207 ± 0.11 kcal/mol and 0.332 ± 0.13 kcal/mol.
With “SAGGSAGGSAGGMVTATVTEYQPGEGLLTVKPPDGSTITIAVPPSVSYEELKNTTIDLSLSAGGSAGGSAGG [r7_296_JUSTAS]”, the “folding stability dG unfold” value in data set [1] is 0.021 ± 0.072 kcal/mol; in data set [2] it was 1.09 ± 0.036 kcal/mol; in data set [3], 0.714 ± 0.066 kcal/mol.
Taken in the same sequence, the figures for “SAGGSAGGSAGGMVTTKTVVTFDPSGYITTTETIKVVGTDELLTKTSVTPVEPVPPLLSSAGGSAGGSAGGS [r10_928_JUSTAS]” were 1.18 ± 0.026 kcal/mol, -0.179 ± 0.2 kcal/mol and 0.828 ± 0.1 kcal/mol.
Taken in the same sequence, the figures for “SAGGSAGGSAGGMVTVETAPAPEGTERVIRVTFLEVNPEDGTIVRPATLTFVVPPGDPLSAGGSAGGSAGGS [r10_86_TrMRF]” were 0.876 ± 0.083 kcal/mol, 0.397 ± 0.066 kcal/mol and 0.686 ± 0.062 kcal/mol.
On the same counts, the results for “SAGGSAGGSAGGMVVEVVELPDGQLVVRAGPVGYAVVFNGEEVTLFELPPDAEVELLPFSAGGSAGGSAGGS [r10_637_TrMRF]” are 1.55 ± 0.089 kcal/mol, 1.1 ± 0.032 kcal/mol and 1.36 ± 0.098 kcal/mol.
In the case of “SAGGSAGGSAGGMVVLKTPERFVVVESVEVYVPVRDPDGTPVRWSPVRTEVRVTVIPPLASAGGSAGGSAGG [r7_3_JUSTAS]”, the “folding stability dG unfold” value in data set [1] came out at 2.13 ± 0.057 kcal/mol; in data set [2], 1.34 ± 0.038 kcal/mol; in data set [3], 1.86 ± 0.058 kcal/mol.
With “SAGGSAGGSAGGMVYFPESLKEEVIEELKKKGYKIKSIEKIEGGYIRITTPKNPIEIKLLSAGGSAGGSAGG [r17_379_JUSTAS]”, the “folding stability dG unfold” value was 0.786 ± 0.25 kcal/mol in data set [1], 0.443 ± 0.084 kcal/mol in data set [2] and 0.8 ± 0.17 kcal/mol in data set [3].
On the same counts, the results for “SAGGSAGGSAGGMWYIRITYDNGREIWIPIGDPITIKHKDGKPVQIKEVEVYPLPPGQISAGGSAGGSAGGS [r10_20_TrROS]” are 2.72 ± 0.032 kcal/mol, 2.04 ± 0.064 kcal/mol and 2.58 ± 0.11 kcal/mol.
Take “SAGGSAGGSAGGMYYAIITNKNGKKKIIKFKSLEEMEEAAKKNNIKIEIIPKEELEKLLSAGGSAGGSAGGS [r10_66_TrROS_Hall]”: the “folding stability dG unfold” value in data set [1] is 3.64 ± 0.043 kcal/mol; in data set [2], 3.56 ± 0.11 kcal/mol; in data set [3], 3.65 ± 0.069 kcal/mol.
Taken in the same sequence, the figures for “SAGGSAGGSAGGNPPDWKPVGEEEFPIPNPNGMQIKISVWTIRAPDDGKSASFIDIEMYPSAGGSAGGSAGG [r7_546_TrROS]” were 1.87 ± 0.072 kcal/mol, 1.19 ± 0.07 kcal/mol and 1.58 ± 0.32 kcal/mol.
For the sequence “SAGGSAGGSAGGNWVTIWIPFKMTHYRPDPDGKMYPHKHEMPRPITIPPGQATEDALDKISAGGSAGGSAGG [r7_777_TrROS]”, the “folding stability dG unfold” value amounted to 0.762 ± 0.14 kcal/mol in data set [1], 0.165 ± 0.12 kcal/mol in data set [2] and 0.595 ± 0.11 kcal/mol in data set [3].
On the same counts, the results for “SAGGSAGGSAGGNYVVRIEHNGQPIMEQPFPGSLEDAKDYVKEIAQFFPPDKVKIEVYKFSAGGSAGGSAGG [r7_81_TrROS]” are 0.458 ± 0.19 kcal/mol, -0.0528 ± 0.057 kcal/mol and 0.292 ± 0.095 kcal/mol.
As for “SAGGSAGGSAGGPDFKIEPVEKKGNYELYKAYIPETGEEFFLVYYPNPKEVKIYPSDYLSAGGSAGGSAGGS [r10_172_TrMRF]”, the “folding stability dG unfold” value in data set [1] was found to be 1.52 ± 0.034 kcal/mol; in data set [2], 0.754 ± 0.038 kcal/mol; in data set [3], 1.29 ± 0.049 kcal/mol.
On the same counts, the results for “SAGGSAGGSAGGPEVEVFYERGPDGPLKVVVVVRNPDTPEVTVLVADLEPEKALEFLEALSAGGSAGGSAGG [r7_105_TrMRF]” are 1.86 ± 0.084 kcal/mol, 2 ± 0.14 kcal/mol and 1.89 ± 0.18 kcal/mol.
